Earlier results on 8 sequences are cited in PMC9792189.

The target of the series is SARS-CoV-2 S1/RBD (target in cited aptamer papers) (SARS-CoV-2) (UniProt P0DTC2). The experiment in a line: SPR. (In general: SPR reads the build-up and loss of mass on a sensor chip optically.)

For the sequence “TTCCGGTTAATTTATGCTCTACCCGTCCACCTACCGGAA [MSA1T]”, the Kd was 2.8 nM.

Turning to “TCGAGTGGCTTGTTTGTAATGTAGGGTTCCGGTCGTGGGT [Aptamer-1]”, the Kd is 28 nM.

Take “ACGGGTTTGGCGTCGGGCCTGGCGGGGGGATAGTGCGGT [MSA5T]”: the dissociation constant (Kd) is 10.1 nM.

In the case of “ATTACCGATGGCTTGTTTGTAATGTAGGGTTCCGTCGGAT [Aptamer-2]”, the dissociation constant (Kd) was 27 nM.

With “AAAGCCACAACGAGCTCGGGTGAAAGCAGTCCGTTGAGTAGGCTTGCGGCTGCGTGGCATATCGATT [SSapt1]”, the Kd was 105 nM.

Take GGGGTGGGGTAGTGGTATGGAGCG [XN-268s]: the equilibrium dissociation constant (Kd) is 4.26 nM.

With “TTCCGGTTAATTTATGCTCTACCCGTCCACCTACCGGAATTTTTTTTTTTTTTTTTTTTTTTTTTTTTTACGGGTTTGGCGTCGGGCCTGGCGGGGGGATAGTGCGGT [DSA1N5]”, the Kd was 0.51 nM.

For the sequence “CAGCACCGACCTTGTGCTTTGGGAGTGCTGGTCCAAGGGCGTTAATGGACA [CoV2-RBD-1C]”, the Kd was 3.1 nM.

Broadly, the Kd is the concentration at which binding is half-saturated.
